From the supplement of paper PMC10567573
± gives the standard deviation.

Assay: protein stability index of a GFP-peptide fusion (GPS, HEK-293T) (PSI 1-6); higher = more stable
[1] = treatment: DMSO, c terminus: a fixed tail appended
[2] = treatment: MLN4924 1 uM, 8 h, c terminus: a fixed tail appended
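Further: 24-mer peptide tiles fused after GFP, lentivirally expressed, FACS-sorted into six equal bins by GFP/DsRed ratio, decoded by Illumina sequencing, PSI is the read-weighted mean bin number.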

| Sequence | protein stability index [1] | protein stability index [2] | protein stability index (treatment: DMSO, c terminus: native) | protein stability index (treatment: MLN4924 1 uM, 8 h, c terminus: native) |
| --- | --- | --- | --- | --- |
| PETFWIQRAPQLPTWWPLPTQVPA [SPAG8] | 2.42 ± 0.19 | 2.52 ± 0.15 | – | – |
| GRTPLIKLSPKKTWEGFIGGFFAT [CDS2] | 1.91 ± 0.24 | 2.09 ± 0.55 | – | – |
| YKNIKRPPGDIMFLLVQRFGELMR [USP39] | 2.29 ± 0.16 | 2.14 ± 0.17 | – | – |
| LMFFIMAAMLSMVKYNSCADRPFS [POMT2] | 3.19 ± 0.7 | 3.06 ± 0.32 | – | – |
| SLMPLQKSISPWKSPPQLRQFLPE [DENND6A] | 2.72 ± 0.21 | 2.51 ± 0.52 | – | – |
| AMTGTFPAYGMSPSLSTITSTSSS [DVL3] | 3.68 ± 0.24 | 3.61 ± 0.17 | – | – |
| MSSEVSARRDAKKLVRSPSGLRMV [ZFYVE21] | 3.67 ± 0.091 | 3.58 ± 0.28 | – | – |
| ICTNLCEALQNFFSLACSLMGPSR [M1AP] | 2.33 ± 0.28 | 2.26 ± 0.1 | – | – |
| EGGTAVTGGQTVVNPWIIIGGVAT [SEPHS2] | 2.68 ± 0.29 | 2.77 ± 0.43 | – | – |
| TVYNEMDKNRCELLSFLLLMDYIG [EDNRA] | 2.09 ± 0.34 | 2.17 ± 0.5 | – | – |
| ILIVDWDVHHGNGTQHMFEDDPSV [HDAC6] | 2.18 ± 0.23 | 2.39 ± 0.21 | – | – |
| KGEVPKGSCEDEPMDSTMDDAVAG [ATE1] | 5.48 ± 0.28 | 5.61 ± 0.17 | – | – |
| TTKGTSEMSEKRGPTSSNPRKRHR [MLH1] | 5.14 ± 0.41 | 5.04 ± 0.079 | – | – |
| LYSLAPTMGAVVLSSTLLSFSTAI [MFSD9] | 3.19 ± 0.47 | 2.96 ± 0.42 | – | – |
| VPEKRDSGMTEVERTYSANCSDFL [SPATS1] | 4.7 ± 0.17 | 4.89 ± 0.14 | – | – |
| KEIQYLKDLIEEVRKARGKKRVP [ATF4] | – | – | 2.52 ± 0.47 | 2.33 ± 0.47 |
| RAFNTDHQTQLLYQASAMMVESRY [RAD51] | 2.42 ± 0.35 | 2.68 ± 0.22 | – | – |
| LFQLSCSSTQLNELLLFAVGFIMA [OR3A1] | 2.71 ± 0.45 | 2.98 ± 0.87 | – | – |
| LRARNYEYLIRLFQEWEAHRNLSQ [TCF25] | 2.13 ± 0.38 | 2.18 ± 0.35 | – | – |
| ILKSQKERQCALRVFKARIYTNRY [FBXO39] | 2.41 ± 0.35 | 2.46 ± 0.29 | – | – |
| VQLIQDTRIHILPSMNPDGYEVAA [CPN1] | 2.55 ± 0.23 | 2.57 ± 0.33 | – | – |
| LRRRIENGAKELWFFLQSELKKLK [FUT8] | 2.85 ± 0.43 | 2.52 ± 0.4 | – | – |

| Sequence | protein stability index [1] | protein stability index [2] | protein stability index (treatment: DMSO, c terminus: native) | protein stability index (treatment: MLN4924 1 uM, 8 h, c terminus: native) |
| --- | --- | --- | --- | --- |
| FACLSVLFVTVTAVNLSVSTLPSL [KCNG1] | 3.15 ± 0.28 | 3.46 ± 0.23 | – | – |
| SAVEKEPARAPPEPPHNLFCAPGS [SERTAD3] | 4.95 ± 0.24 | 4.98 ± 0.078 | – | – |
| TCSSCLLRAPTISDLLNDQDLLDV [EDARADD] | 2.57 ± 0.29 | 2.56 ± 0.43 | – | – |
| KVIYLDDDVIVQGDIQELYDTTLA [GLT8D2] | 2.65 ± 0.36 | 2.94 ± 0.29 | – | – |
| ASAGKRRCFWLGMEGLETAEGSNS [SDE2] | 3.62 ± 0.26 | 3.84 ± 0.45 | – | – |
| VPGTQVGQGGKLWDPSVQSCKEGL [ZNF263] | 4.12 ± 0.12 | 4.26 ± 0.18 | – | – |
| HSYNVTQRRPRVLSCLHSVCEQCL [RNF208] | 2.87 ± 0.17 | 3.16 ± 0.33 | – | – |
| PPTSGCLGPVPREDQAEAWGCSCC [TSPAN10] | 4.8 ± 0.3 | 4.74 ± 0.24 | – | – |
| SSTLVRPIRSRRALPPLRTRSKSD [FAM189A2] | 4.65 ± 0.31 | 4.6 ± 0.084 | – | – |
| SGNFERCIRLWKYALDMQQSNLEP [FEM1A] | 2.12 ± 0.12 | 2.38 ± 0.48 | – | – |
| THLPKADIFALALTVVCAAGAEPL [WEE1] | 3.6 ± 0.35 | 3.31 ± 0.26 | – | – |
| KKWGINTYKCTKQLLSERFGRGSR [ARFIP2] | 2.65 ± 0.28 | 2.86 ± 0.53 | – | – |
| TLEELLPPNTRVLRVLPNLPCVVQ [PYCR3] | 2.28 ± 0.28 | 2.1 ± 0.38 | – | – |
| ELRRLFLVQDLVDSLKFAVLMWLL [RTN1] | 2.18 ± 0.56 | 2.2 ± 0.29 | – | – |
| AVVSCTPVHLVDKLPLPIALRSHL [RAB40B] | 2.65 ± 0.12 | 1.98 ± 0.41 | – | – |
| GSYTVQSELGDYDPDECGSDYISE [EPB41L3] | 4.83 ± 0.48 | 5.2 ± 0.22 | – | – |
| PQFLHEGLSKPVYVINWFMSFGPE [FAM104B] | 2.68 ± 0.71 | 2.97 ± 1.2 | – | – |
| LFVIVPVLGPLVALIICYNWLHRR [MOG] | 3.38 ± 0.68 | 3.11 ± 0.58 | – | – |
| LPEKACQLDSRYWRITNAKGDVEE [FBXO3] | 4.47 ± 0.11 | 4.49 ± 0.52 | – | – |
| AWSQRSAAGRVCRPPGPAGTEQSR [CPOX] | 4.16 ± 0.22 | 4.29 ± 0.16 | – | – |
| TATTAPPALDIFGDLFESTPEVAA [SNAP91] | 4.62 ± 0.29 | 4.71 ± 0.2 | – | – |
| DQHRLYKQIKAGAYDFPSPEWDTV [CAMK2A] | 3.29 ± 0.23 | 3.3 ± 0.24 | – | – |
